The results in this text go back to the supplement of paper PMC9112550, “Optimization of the antimicrobial peptide Bac7 by deep mutational scanning” (BMC Biology, 2022).
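Further: peptides expressed intracellularly from a pBAD plasmid library in pooled LB shake-flask culture, induced with 0.3% L-arabinose, DNA abundance read by NGS, three biological replicates, DESeq2 with apeglm shrinkage.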

The test system of this data set is Escherichia coli TOP10. The data set can be described thus: shrunken log2 fold change of peptide-encoding DNA abundance (4.5 h post-induction vs induction); higher = less antimicrobial activity (less host growth inhibition). As to conditions: time post-induction: 4.5 h; library: site-saturation at positions 5, 18, 19, 20.
Take RRIRERPPRLPRPRPRPWSNPRP: the “shrunken log2 fold change” value was -0.0583.

Consider RRIRQRPPRLPRPRPRPQEVPRP, for which the “shrunken log2 fold change” value is -0.171.

In the case of RRIRDRPPRLPRPRPRPSVAPRP, the “shrunken log2 fold change” value is 0.233.

Consider RRIRWRPPRLPRPRPRPVTHPRP, for which the “shrunken log2 fold change” value is -0.0273.

Take RRIRFRPPRLPRPRPRPRMEPRP: the “shrunken log2 fold change” value is -0.00899.

In the case of RRIRVRPPRLPRPRPRPNVEPRP, the “shrunken log2 fold change” value is -0.0461.

Consider RRIRQRPPRLPRPRPRPVVWPRP, for which the “shrunken log2 fold change” value was 0.586.

As for RRIRVRPPRLPRPRPRPLEDPRP, the “shrunken log2 fold change” value was 0.144.

Turning to RRIRGRPPRLPRPRPRPAECPRP, the “shrunken log2 fold change” value turned out to be 0.196.

Regarding RRIRRRPPRLPRPRPRPQAFPRP, the “shrunken log2 fold change” value was 0.0653.

As for RRIRYRPPRLPRPRPRPSDSPRP, the “shrunken log2 fold change” value is -0.191.

As for RRIRIRPPRLPRPRPRPLVSPRP, the “shrunken log2 fold change” value is -0.244.

Regarding RRIRLRPPRLPRPRPRPAIWPRP, the “shrunken log2 fold change” value turned out to be 0.016.

For the sequence RRIRQRPPRLPRPRPRPHMMPRP, the “shrunken log2 fold change” value was -0.526.

For RRIRTRPPRLPRPRPRPTLDPRP, the “shrunken log2 fold change” value was 0.249.

Turning to RRIRGRPPRLPRPRPRPYQRPRP, the “shrunken log2 fold change” value turned out to be 0.189.

In the case of RRIRYRPPRLPRPRPRPKHAPRP, the “shrunken log2 fold change” value is -0.0577.

Regarding RRIRDRPPRLPRPRPRPQKEPRP, the “shrunken log2 fold change” value is -0.0595.

As to RRIRFRPPRLPRPRPRPPYNPRP, the “shrunken log2 fold change” value was -0.323.

Regarding RRIRTRPPRLPRPRPRPTTQPRP, the “shrunken log2 fold change” value is -0.338.

Take RRIRLRPPRLPRPRPRPTGKPRP: the “shrunken log2 fold change” value was -0.202.

Consider RRIRCRPPRLPRPRPRPEPQPRP, for which the “shrunken log2 fold change” value is 0.468.

RRIRHRPPRLPRPRPRPENSPRP: the “shrunken log2 fold change” value was -0.304.

For RRIRSRPPRLPRPRPRPDDAPRP, the “shrunken log2 fold change” value came to 0.162.

Regarding RRIRQRPPRLPRPRPRPGDGPRP, the “shrunken log2 fold change” value is 0.415.

As to RRIRTRPPRLPRPRPRPPVIPRP, the “shrunken log2 fold change” value came out at 0.213.

On to RRIRNRPPRLPRPRPRPYLNPRP, for which the “shrunken log2 fold change” value was -0.487.

For RRIRDRPPRLPRPRPRPGYDPRP, the “shrunken log2 fold change” value was 0.0286.

In the case of RRIRLRPPRLPRPRPRPMCGPRP, the “shrunken log2 fold change” value came out at 0.0137.

In the case of RRIRSRPPRLPRPRPRPHERPRP, the “shrunken log2 fold change” value was 7.23e-05.

RRIRIRPPRLPRPRPRPASWPRP: the “shrunken log2 fold change” value turned out to be 0.0913.

As for RRIRRRPPRLPRPRPRPRTPPRP, the “shrunken log2 fold change” value was 0.616.

RRIRCRPPRLPRPRPRPMDKPRP: the “shrunken log2 fold change” value is -0.131.

RRIRNRPPRLPRPRPRPCFWPRP: the “shrunken log2 fold change” value is -0.0333.

Consider RRIRDRPPRLPRPRPRPSAVPRP, for which the “shrunken log2 fold change” value was found to be 0.291.

For the sequence RRIRFRPPRLPRPRPRPTSKPRP, the “shrunken log2 fold change” value was -0.191.

For the sequence RRIRSRPPRLPRPRPRPPGLPRP, the “shrunken log2 fold change” value worked out at 0.348.

As to RRIRQRPPRLPRPRPRPALFPRP, the “shrunken log2 fold change” value is -0.0103.

With RRIRERPPRLPRPRPRPSTKPRP, the “shrunken log2 fold change” value is -0.232.

As to RRIRWRPPRLPRPRPRPVSAPRP, the “shrunken log2 fold change” value amounted to 0.316.

In the case of RRIRARPPRLPRPRPRPAYVPRP, the “shrunken log2 fold change” value was -0.118.

Turning to RRIRYRPPRLPRPRPRPPVVPRP, the “shrunken log2 fold change” value was 0.00632.

For the sequence RRIRWRPPRLPRPRPRPFMHPRP, the “shrunken log2 fold change” value was -0.153.

In the case of RRIRIRPPRLPRPRPRPYSAPRP, the “shrunken log2 fold change” value was -0.221.

In the case of RRIRVRPPRLPRPRPRPWCRPRP, the “shrunken log2 fold change” value was -0.396.

With RRIRQRPPRLPRPRPRPVTTPRP, the “shrunken log2 fold change” value was determined as 0.0606.

With RRIRGRPPRLPRPRPRPKDVPRP, the “shrunken log2 fold change” value was -0.0336.

Turning to RRIRARPPRLPRPRPRPCYTPRP, the “shrunken log2 fold change” value is -0.486.

Regarding RRIRFRPPRLPRPRPRPNVCPRP, the “shrunken log2 fold change” value was -0.0089.

Take RRIRTRPPRLPRPRPRPTEPPRP: the “shrunken log2 fold change” value is 0.045.

As for RRIRQRPPRLPRPRPRPSQNPRP, the “shrunken log2 fold change” value is -0.383.

Regarding RRIRIRPPRLPRPRPRPQAIPRP, the “shrunken log2 fold change” value is 0.0305.

For the sequence RRIRARPPRLPRPRPRPWAYPRP, the “shrunken log2 fold change” value is -0.0297.

Turning to RRIRLRPPRLPRPRPRPGVRPRP, the “shrunken log2 fold change” value worked out at 0.256.

With RRIRKRPPRLPRPRPRPLMIPRP, the “shrunken log2 fold change” value is -0.171.

In the case of RRIRHRPPRLPRPRPRPPLKPRP, the “shrunken log2 fold change” value was -0.00744.

Turning to RRIRYRPPRLPRPRPRPVPKPRP, the “shrunken log2 fold change” value was found to be 0.0938.

Consider RRIRKRPPRLPRPRPRPDICPRP, for which the “shrunken log2 fold change” value was 0.0913.

For the sequence RRIRCRPPRLPRPRPRPQVYPRP, the “shrunken log2 fold change” value was -0.313.

For RRIRDRPPRLPRPRPRPIMRPRP, the “shrunken log2 fold change” value amounted to 0.225.

Take RRIRLRPPRLPRPRPRPKWDPRP: the “shrunken log2 fold change” value turned out to be 0.184.

On to RRIRQRPPRLPRPRPRPARLPRP, for which the “shrunken log2 fold change” value is 0.0512.

RRIRWRPPRLPRPRPRPQRDPRP: the “shrunken log2 fold change” value was -0.0245.

For the sequence RRIRSRPPRLPRPRPRPRQSPRP, the “shrunken log2 fold change” value stood at 0.113.

Regarding RRIRKRPPRLPRPRPRPTDYPRP, the “shrunken log2 fold change” value was found to be 0.124.

On to RRIRMRPPRLPRPRPRPWAAPRP, for which the “shrunken log2 fold change” value was determined as 0.502.

For the sequence RRIRARPPRLPRPRPRPAQLPRP, the “shrunken log2 fold change” value is 0.324.

Consider RRIRPRPPRLPRPRPRPMAHPRP, for which the “shrunken log2 fold change” value was -0.165.

Regarding RRIRWRPPRLPRPRPRPDNWPRP, the “shrunken log2 fold change” value is 0.104.

With RRIRQRPPRLPRPRPRPDQIPRP, the “shrunken log2 fold change” value amounted to 0.00408.

In the case of RRIRPRPPRLPRPRPRPVNPPRP, the “shrunken log2 fold change” value was 0.0675.

RRIRNRPPRLPRPRPRPRQRPRP: the “shrunken log2 fold change” value is 0.215.

Turning to RRIRNRPPRLPRPRPRPTNRPRP, the “shrunken log2 fold change” value was -0.00917.

Turning to RRIRARPPRLPRPRPRPRILPRP, the “shrunken log2 fold change” value came out at 0.323.

On to RRIRMRPPRLPRPRPRPHPYPRP, for which the “shrunken log2 fold change” value worked out at 0.168.

On to RRIRYRPPRLPRPRPRPAQQPRP, for which the “shrunken log2 fold change” value was 0.0788.

With RRIRRRPPRLPRPRPRPHRHPRP, the “shrunken log2 fold change” value amounted to 0.0704.

Consider RRIRQRPPRLPRPRPRPSELPRP, for which the “shrunken log2 fold change” value is -0.159.

For RRIRMRPPRLPRPRPRPYFPPRP, the “shrunken log2 fold change” value was -0.213.

RRIRCRPPRLPRPRPRPAETPRP: the “shrunken log2 fold change” value is -0.035.

Consider RRIRNRPPRLPRPRPRPGKNPRP, for which the “shrunken log2 fold change” value turned out to be 0.0906.

Regarding RRIRFRPPRLPRPRPRPHELPRP, the “shrunken log2 fold change” value turned out to be 0.0835.

Consider RRIRNRPPRLPRPRPRPHADPRP, for which the “shrunken log2 fold change” value is -0.315.

In the case of RRIRQRPPRLPRPRPRPNTVPRP, the “shrunken log2 fold change” value is -0.369.

Take RRIRDRPPRLPRPRPRPPSTPRP: the “shrunken log2 fold change” value was -0.0415.

RRIRRRPPRLPRPRPRPILCPRP: the “shrunken log2 fold change” value was 0.48.

With RRIRWRPPRLPRPRPRPYTCPRP, the “shrunken log2 fold change” value is -1.7.

Regarding RRIRDRPPRLPRPRPRPARHPRP, the “shrunken log2 fold change” value was determined as 0.368.

Consider RRIRARPPRLPRPRPRPPHYPRP, for which the “shrunken log2 fold change” value amounted to 0.857.

RRIRNRPPRLPRPRPRPEHWPRP: the “shrunken log2 fold change” value was -0.0343.

Turning to RRIRQRPPRLPRPRPRPQQEPRP, the “shrunken log2 fold change” value came to 0.0811.

RRIRRRPPRLPRPRPRPILMPRP: the “shrunken log2 fold change” value was -0.00531.

For RRIRYRPPRLPRPRPRPTNSPRP, the “shrunken log2 fold change” value was -0.342.

For RRIRGRPPRLPRPRPRPILHPRP, the “shrunken log2 fold change” value was 0.0775.

Consider RRIRKRPPRLPRPRPRPSFEPRP, for which the “shrunken log2 fold change” value was 0.000728.

Regarding RRIRYRPPRLPRPRPRPFHEPRP, the “shrunken log2 fold change” value was -0.245.

Regarding RRIRNRPPRLPRPRPRPQNSPRP, the “shrunken log2 fold change” value was -0.38.

For the sequence RRIRERPPRLPRPRPRPAYQPRP, the “shrunken log2 fold change” value amounted to 0.0953.

In the case of RRIRGRPPRLPRPRPRPPCTPRP, the “shrunken log2 fold change” value stood at 0.76.

As for RRIRRRPPRLPRPRPRPWNFPRP, the “shrunken log2 fold change” value is -0.0355.

For the sequence RRIRMRPPRLPRPRPRPNTMPRP, the “shrunken log2 fold change” value was found to be 0.0324.

Regarding RRIRFRPPRLPRPRPRPVVEPRP, the “shrunken log2 fold change” value amounted to 0.258.

As for RRIRDRPPRLPRPRPRPKVLPRP, the “shrunken log2 fold change” value was -0.041.

For RRIRWRPPRLPRPRPRPCMKPRP, the “shrunken log2 fold change” value came out at 0.00396.

Consider RRIRIRPPRLPRPRPRPMRNPRP, for which the “shrunken log2 fold change” value stood at 0.167.

On to RRIRKRPPRLPRPRPRPDDSPRP, for which the “shrunken log2 fold change” value is -0.0813.

Regarding RRIRRRPPRLPRPRPRPESTPRP, the “shrunken log2 fold change” value was found to be 0.571.

Turning to RRIRHRPPRLPRPRPRPHINPRP, the “shrunken log2 fold change” value is -0.563.

Take RRIRRRPPRLPRPRPRPYCNPRP: the “shrunken log2 fold change” value was -0.834.

Consider RRIRFRPPRLPRPRPRPVLNPRP, for which the “shrunken log2 fold change” value was -0.282.

For the sequence RRIRKRPPRLPRPRPRPIFKPRP, the “shrunken log2 fold change” value worked out at 0.307.

Regarding RRIRMRPPRLPRPRPRPIMMPRP, the “shrunken log2 fold change” value was -0.00663.

RRIRNRPPRLPRPRPRPAIVPRP: the “shrunken log2 fold change” value was -0.0426.

As to RRIRHRPPRLPRPRPRPQRDPRP, the “shrunken log2 fold change” value was found to be 0.000147.

For RRIRSRPPRLPRPRPRPNAWPRP, the “shrunken log2 fold change” value was -0.0228.

Turning to RRIRFRPPRLPRPRPRPELCPRP, the “shrunken log2 fold change” value amounted to 0.193.

Turning to RRIRRRPPRLPRPRPRPNHIPRP, the “shrunken log2 fold change” value was -0.502.

On to RRIRHRPPRLPRPRPRPNDYPRP, for which the “shrunken log2 fold change” value was -0.56.

In the case of RRIRWRPPRLPRPRPRPFVAPRP, the “shrunken log2 fold change” value was found to be 0.292.

On to RRIRPRPPRLPRPRPRPFVHPRP, for which the “shrunken log2 fold change” value was -0.246.

As to RRIRRRPPRLPRPRPRPTRHPRP, the “shrunken log2 fold change” value amounted to 0.783.

As to RRIRQRPPRLPRPRPRPHRGPRP, the “shrunken log2 fold change” value stood at 0.0502.

For RRIRGRPPRLPRPRPRPCTMPRP, the “shrunken log2 fold change” value was -0.063.

In the case of RRIRIRPPRLPRPRPRPCTPPRP, the “shrunken log2 fold change” value was -0.719.

As for RRIRLRPPRLPRPRPRPFGPPRP, the “shrunken log2 fold change” value worked out at 0.0996.
